Data: patent US20160319287A1 (WESTF LISCHE WILHELMS UNIVERSIT T M NSTER, published 2016)
No end group written: not given here. FI = 5(6)-carboxyfluorescein

How the values were obtained:
Test in all cases: cell-based or functional assay
MBP-M1^C-EGFP-H6 = target: MBP-M1^C-EGFP-H6
MBP-M1^C-mRFP-H6 = target: MBP-M1^C-mRFP-H6
[1] = target: WT^C-Trx-H6 (AceL-TerL Int^C fused to hexahistidine-tagged thioredoxin) (UniProt P0AA25 2-109 = thioredoxin)
MBP-M1^C-SENP1-H6 = target: T1, MBP-M1^C-SENP1-H6 (human, UniProt Q9P0U3 419-644)
T1 sequence (Q9P0U3 whole entry, looked up): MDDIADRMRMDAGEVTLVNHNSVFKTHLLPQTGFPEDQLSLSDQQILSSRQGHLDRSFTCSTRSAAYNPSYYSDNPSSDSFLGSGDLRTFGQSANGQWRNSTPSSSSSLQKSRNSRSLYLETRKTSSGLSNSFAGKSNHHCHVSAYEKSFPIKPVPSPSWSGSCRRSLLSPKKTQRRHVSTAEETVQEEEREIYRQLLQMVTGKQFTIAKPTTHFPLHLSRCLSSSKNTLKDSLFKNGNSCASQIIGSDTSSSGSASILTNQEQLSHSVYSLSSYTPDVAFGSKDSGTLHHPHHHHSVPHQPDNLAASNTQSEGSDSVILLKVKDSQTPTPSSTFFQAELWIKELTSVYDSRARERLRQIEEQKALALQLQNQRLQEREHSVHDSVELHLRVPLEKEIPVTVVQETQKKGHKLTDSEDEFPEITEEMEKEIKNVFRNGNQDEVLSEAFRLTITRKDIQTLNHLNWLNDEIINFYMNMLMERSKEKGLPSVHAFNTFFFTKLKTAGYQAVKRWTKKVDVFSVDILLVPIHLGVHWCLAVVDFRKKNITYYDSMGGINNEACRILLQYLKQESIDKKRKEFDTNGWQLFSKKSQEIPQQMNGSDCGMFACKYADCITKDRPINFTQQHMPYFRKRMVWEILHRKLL

MBP-M1^C-Gluc-H6 = MBP-M1^C-Gluc-H6 (Gaussia princeps)
Sequence of MBP-M1^C-Gluc-H6 (Gaussia princeps) (main, as listed by the source): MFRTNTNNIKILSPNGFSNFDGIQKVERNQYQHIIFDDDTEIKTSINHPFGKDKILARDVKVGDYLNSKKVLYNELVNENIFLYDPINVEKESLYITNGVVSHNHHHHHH

MBP-M1^C-Ubc9-H6 = MBP-M1^C-Ubc9-H6 (murine, UniProt P63280 1-158)
Sequence of MBP-M1^C-Ubc9-H6 (P63280 other isoform, or with tags, fused parts or gaps): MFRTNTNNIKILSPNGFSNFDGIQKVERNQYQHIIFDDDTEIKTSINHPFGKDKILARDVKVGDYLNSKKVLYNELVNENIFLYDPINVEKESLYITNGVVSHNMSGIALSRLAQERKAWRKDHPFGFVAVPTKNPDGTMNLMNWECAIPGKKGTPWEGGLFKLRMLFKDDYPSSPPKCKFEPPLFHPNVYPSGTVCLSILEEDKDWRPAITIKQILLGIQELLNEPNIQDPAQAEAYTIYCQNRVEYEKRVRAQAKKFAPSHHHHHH

Sequence of WT^C-Trx-H6 (AceL-TerL Int^C fused to hexahistidine-tagged thioredoxin) (P0AA25 other isoform, or with tags, fused parts or gaps): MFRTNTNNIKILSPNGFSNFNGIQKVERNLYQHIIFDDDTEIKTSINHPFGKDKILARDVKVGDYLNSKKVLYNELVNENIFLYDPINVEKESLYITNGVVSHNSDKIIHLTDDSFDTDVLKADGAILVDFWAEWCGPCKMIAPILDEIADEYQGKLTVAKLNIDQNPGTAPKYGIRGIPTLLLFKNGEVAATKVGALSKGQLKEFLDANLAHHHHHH
Sequence of MBP-M1^C-EGFP-H6 (main, as listed by the source): as the sequence (main, as listed by the source) above
Sequence of MBP-M1^C-mRFP-H6 (main, as listed by the source): as above

In the case of {FI}-KKEFECVYGDTMVETEDGKIKIEDLYKRLA [pepWT^N (FI-KKEFE-IntN), synthetic peptide with the Int^N of the AceL-TerL intein], the “yield of the N-terminally labelled splice product after 3 h at 8° C.” value (“yield” below) (MBP-M1^C-EGFP-H6) is reported as ~80%, the “yield” value (MBP-M1^C-mRFP-H6) is reported as ~80% and the “splicing rate at 37° C. against 8° C.” value [1] is reported as ~50 fold slower. For the same binder, the “t½ of splicing at 8° C.” value [1] was 7.2 min, the “yield” value (MBP-M1^C-SENP1-H6) was ~80% and the “yield” value (MBP-M1^C-Gluc-H6) was ~80%. The “yield” value (MBP-M1^C-Ubc9-H6) was ~80%.
